This is an account of results in patent publication US20190248900A1 (Y BIOLOGICS, published 2019).

For test [1], the target named is T1, PD1-hFc (human, UniProt Q15116 25-170).
T1 construct: extracellular domain; also called PD1-hFc protein; Human PD-1-Fc (S1420, Y-Biologics)
The test is described as follows: SPR ProteOn XPR36, PD1-hFc immobilised, antibody as analyte. As to the method:
A ProteOn XPR36 (BioRad) instrument was used. The GLC sensor chip (BioRad) was mounted on the instrument and washed with PBST buffer, and the carboxymethyldextran surface was activated with an EDC/sulfo-NHS mixed solution. PD1-hFc dissolved at a concentration of 5 ug/ml in a 10 mM sodium acetate buffer solution (pH 5.0) was injected and immobilized on the GLC sensor chip.
In order to deactivate the activated carboxyl groups that remain unreacted with the PD1 protein, 1 M ethanolamine was flowed and 10 mM glycine (pH 2.0) was injected in order to wash proteins that remain unbound to the sensor chip.
The equilibrium dissociation constant (KD) was calculated by plotting and fitting the sensogram data in the equilibrium state depending on concentration.

The target in test [2] is T2, rat PD1 protein (rat, UniProt D3ZIN8 25-169).
T2 construct: also called rat PD-1 proteins
T2 sequence: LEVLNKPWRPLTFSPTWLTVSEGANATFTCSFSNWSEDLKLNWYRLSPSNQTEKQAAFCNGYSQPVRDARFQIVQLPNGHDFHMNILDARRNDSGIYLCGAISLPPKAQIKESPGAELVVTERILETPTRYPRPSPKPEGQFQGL
The test is described as follows: SPR ProteOn XPR36; format for rat PD1 not described.

Test [3] has as its target T3, monkey PD1 protein (monkey).
T3 construct: also called monkey PD-1 proteins
The test is described as follows: SPR ProteOn XPR36; format for monkey PD1 not described.

Test [4] concerns the target T4, PD-1-His (S1352, Y-Biologics) (UniProt Q15116 25-170, limits assumed).
T4 construct: not shown: His tag
The test is described as follows: competition ELISA: PD-L2-Fc coated, PD-1-His as binder, antibody as competitor. As to the method: (§1) Human PD-1-Fc (S1420, Y-Biologics) or PD-L2-Fc (#10292-H02H, Sino) was added to wells of a 96-well immuno microplate (#439454, Thermo) and then washed three times with PBS containing 0.05% tween-20 (#P9416, Sigma-Aldrich), followed by allowing to stand in a cleaning solution containing 4% skim milk (#232120, Becton, Dickinson and Company) at room temperature for 1 hour to block non-specific binding. […] After the resulting product was subjected to the same washing method as above, the anti-Biotin-His antibody (#MA1-21315-BTIN, Thermo) diluted to 1:2000 was added to the well of the microplate, allowed to react at room temperature for 1 hour, streptavidin poly-HRP antibody (#21140, Pierce) diluted to 1:5000 was added to the well of microplate, reacted at room temperature for 1 hour and then washed in the same manner. 100 ul of a TMB substrate solution (#T0440, Sigma-Aldrich) was added to the reaction product, light was shielded, and the reaction product was allowed to stand at room temperature for 3 minutes, 50 μL of 2.5 M sulfuric acid (#S1478, Samchun) was added to stop the reaction, and absorbance was measured at 450 nm using a spectrophotometer (*GM3000, Glomax® Discover System Promega).
(In an ELISA, binding on a coated surface is turned into a signal by an enzyme label.)

Test [5] addresses T5, human PD-1 (NM_005018.2) over-expressed on cells (human, UniProt Q15116 25-288). The test is described as follows: cell-based or functional assay.
The target in test [6] is T1, PD1-hFc. Put plainly: competition ELISA: PD1-Fc coated, PDL1-His as binder, antibody as competitor. As to the method:
as §1

Test [7] deals with T5, human PD-1 (NM_005018.2) over-expressed …. Put plainly: flow cytometry on cells over-expressing human PD-1, fit of Geometric Mean. (In general: A flow cytometer gives signals particle by particle.)
Test [8] concerns the target T1, PD1-hFc. Put plainly: ProteOn XPR36; legend names PD1-hFc, the sheet names the immobilised protein PD-1 C-his.
The target of test [9] is T5, human PD-1 (NM_005018.2) over-expressed …. Put plainly: cell-based or functional assay. This is another data set of the same source.
The target of test [10] is T6, M7.
T6 construct: also called PD1 mutant M7
The test is described as follows: ELISA, 1 ug/ml.

The target in test [11] is T7, M11.
T7 construct: also called PD1 mutant M11
The test is described as follows: ELISA, 1 ug/ml.

Test [12] has as its target T8, ITGA6-Fc.
T8 construct: Fc fusion
T8 sequence (P23229 whole entry, species assumed, looked up): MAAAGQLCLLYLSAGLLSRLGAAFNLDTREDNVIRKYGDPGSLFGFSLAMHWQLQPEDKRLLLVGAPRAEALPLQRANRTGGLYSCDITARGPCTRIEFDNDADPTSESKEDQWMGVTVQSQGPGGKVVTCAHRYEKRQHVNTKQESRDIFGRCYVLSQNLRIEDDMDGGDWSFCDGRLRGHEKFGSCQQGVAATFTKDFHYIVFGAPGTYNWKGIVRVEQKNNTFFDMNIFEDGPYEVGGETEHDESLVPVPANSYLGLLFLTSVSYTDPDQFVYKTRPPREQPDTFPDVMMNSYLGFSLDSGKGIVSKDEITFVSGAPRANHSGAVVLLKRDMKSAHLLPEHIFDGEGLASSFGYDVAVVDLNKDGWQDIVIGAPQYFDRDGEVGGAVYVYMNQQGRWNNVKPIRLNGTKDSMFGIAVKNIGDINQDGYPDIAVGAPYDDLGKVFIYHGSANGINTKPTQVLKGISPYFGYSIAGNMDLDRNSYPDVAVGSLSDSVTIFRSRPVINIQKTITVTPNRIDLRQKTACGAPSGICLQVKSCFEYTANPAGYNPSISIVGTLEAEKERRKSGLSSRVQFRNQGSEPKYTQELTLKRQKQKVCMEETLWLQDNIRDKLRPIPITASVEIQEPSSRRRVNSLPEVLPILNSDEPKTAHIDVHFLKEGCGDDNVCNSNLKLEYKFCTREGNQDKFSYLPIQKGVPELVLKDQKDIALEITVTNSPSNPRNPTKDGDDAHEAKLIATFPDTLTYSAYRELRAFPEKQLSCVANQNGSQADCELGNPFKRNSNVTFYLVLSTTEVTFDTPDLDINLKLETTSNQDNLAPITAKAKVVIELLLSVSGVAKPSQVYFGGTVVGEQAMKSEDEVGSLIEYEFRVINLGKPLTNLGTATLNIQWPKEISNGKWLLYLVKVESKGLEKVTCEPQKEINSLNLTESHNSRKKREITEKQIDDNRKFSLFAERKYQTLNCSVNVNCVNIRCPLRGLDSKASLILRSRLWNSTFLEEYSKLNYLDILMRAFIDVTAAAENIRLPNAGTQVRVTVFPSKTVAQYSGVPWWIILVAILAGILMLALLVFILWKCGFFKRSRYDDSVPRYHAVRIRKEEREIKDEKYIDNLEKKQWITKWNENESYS
Put plainly: ELISA, 1 ug/ml.

Some results are limits rather than exact numbers.

B1: PD1-49A2(A/2B9) (antibody, V domains shown)
VH: QVQLVESGGGVVQPGRSLRLSCAASGFTFLRYAMHWVRQAPGKGLEWVAVISYDGRYKYYADSVKGRFTISRDNSKNTLYLQMNSLRAEDTAVYYCTTTTFDSWGQGTLVTVSS
VL: DIVMTQTPLSLPVTPGEAASISCRSSQSLLDSEDGNTYLDWYLQKPGQSPQLLIYTLSHRASGVPDRFSGSGSGTDFTLEISRVEAEDVGVYYCMQRRDFPFTFGQGTKVDIK
notes: scFv-phage in the screening ELISA; whole IgG in the other assays; also called 49A2-2B9; 49A2 (2B9)
Consider B1, for which the kon was determined as 377000 M⁻¹ s⁻¹ in [1], 148000 M⁻¹ s⁻¹ in test [2] and 185000 M⁻¹ s⁻¹ in [3]. The Kd in test [2] is 4.23 nM; in test [3] it was 0.001 nM; in [7], 6.2 nM; in [8] it was less than 0.001 nM. Moreover, the koff was 0.000625 s⁻¹ in test [2], 1e-07 s⁻¹ in test [3] and less than 1e-07 s⁻¹ in test [8]. Further, the IC50 turned out to be 59 nM in [4] and 6.38 nM in test [6]. The molecule further yielded an EC50 in test [5] of 0.689 nM. Besides, in test [7], the Bmax turned out to be 2900. For the same molecule, in test [9], the “EC50 [nM], PD1/PD-L1 blockade bioassay” value is 1.23 nM. For the same molecule, the OD490 was determined as 0.083 in test [10], 0.433 in test [11] and 0.1 in [12].

By kon is commonly meant a measure of how fast the partners come together. By Kd is commonly meant the constant that tells how readily two partners part at equilibrium. In general, koff refers to the rate constant with which the complex falls apart. One may read the IC50 as the concentration that inhibits the measured activity by half. What is called EC50 is the concentration at which the effect is half-maximal.
